Test results published in PMC4099074, “Palmitoylation of Gephyrin Controls Receptor Clustering and Plasticity of GABAergic Synapses” (PLoS Biology, 2014).
Values joined by “and” are separate entries in the source; they are usually repeats but may differ in a detail not shown here. Identical values can stand only once.

Target: the molecule itself
Assay: SEC; lysates of control and 2-BP-treated primary hippocampal neurons; fifteen fractions immunoblotted for gephyrin and PSD-95; reference proteins for size

B1: gephyrin, endogenous in primary hippocampal neurons (natural protein, UniProt Q8BUV3 1-769, looked up)
chain: MATEGMILTNHDHQIRVGVLTVSDSCFRNLAEDRSGINLKDLVQDPSLLGGTISAYKIVPDEIEEIKETLIDWCDEKELNLILTTGGTGFAPRDVTPEATKEVIEREAPGMALAMLMGSLNVTPLGMLSRPVCGIRGKTLIINLPGSKKGSQECFQFILPALPHAIDLLRDAIVKVKEVHDELEDLPSPPPPLSPPPTTSPHKQTEDKGVQCEEEEEEKKDSGVASTEDSSSSHITAAALAAKIPDSIISRGVQVLPRDTASLSTTPSESPRAQATSRLSTASCPTPKQIRRPDESKGVASRVGSLKARLPSCSSTYSVSEVQSRCSSKENILRASHSAVDITKVARRHRMSPFPLTSMDKAFITVLEMTPVLGTEIINYRDGMGRVLAQDVYAKDNLPPFPASVKDGYAVRAADGPGDRFIIGESQAGEQPTQTVMPGQVMRVTTGAPIPCGADAVVQVEDTELIRESDDGTEELEVRILVQARPGQDIRPIGHDIKRGECVLAKGTHMGPSEIGLLATVGVTEVEVNKFPVVAVMSTGNELLNPEDDLLPGKIRDSNRSTLLATIQEHGYPTINLGIVGDNPDDLLNALNEGISRADVIITSGGVSMGEKDYLKQVLDIDLHAQIHFGRVFMKPGLPTTFATLDIDGVRKIIFALPGNPVSAVVTCNLFVVPALRKMQGILDPRPTIIKARLSCDVKLDPRPEYHRCILTWHHQEPLPWAQSTGNQMSSRLMSMRSANGLLMLPPKTEQYVELHKGEVVDVMVIGRL
notes: gephyrin, endogenous; A fraction of it is palmitoylated on Cys212 and Cys284 (7.5% in mouse brain); also called native neuronal gephyrin; gephyrin (83 kDa); source: endogenous, lysates of primary hippocampal neurons (control and 2-BP-treated)
Q: B1 was tested. Which “stoichiometry N” value did it give?
A: 6 and 9
